Experimental data reported in article PMC2553180.

Columns and labels:
[1] = molecular target: previously unrecognized receptor on the RBC (receptor for PfRH5) (human (endogenous in erythrocytes)); test: other fluorescence titration; competition: 2 µM rhodamine-rRH5 with 25 µl packed RBC ghosts in PBS and increasing unlabeled rRH5 (0.1 to 400 µM), 2 h at RT, bound labeled rRH5 by spectrofluorimetry
[2] = molecular target: previously unrecognized receptor on the RBC (receptor for PfRH5) (human (endogenous in erythrocytes)); test: other fluorescence titration; […] fit for identical independent binding sites

Substance | IC50 [1] | Kd [2]
recombinant PfRH5 protein (rRH5), 143-aa fragment Asn-31 to Val-174, GST fusion (domain or fragment) | 50 µM | 
rhodamine-labeled rRH5 (domain or fragment) |  | 12 µM
